Source: patent publication US6979673B1, “Method and compositions for modulating somatolactogenic functions” (Trustees of the University of Pennsylvania, priority 1999, dated 2005)

Tested on: Nb2 cells
Assay: PRL-driven proliferation of Nb2 cells (3H-thymidine)
Assay type: cell-based, rat
Experimental: The effect of exogenous CypB on PRL-driven proliferation was examined with the rat Nb2 T-cell and the human T47D breast cancer line. […] This dose-dependent biphasic effect was most prominent at physiologic concentrations ([…]) of CypB and PRL (50 pM) found in human serum. […] To determine the effect of CypB on cellular growth driven by the larger family of cytokines, to which PRL belongs, proliferation driven by interleukin-2 (IL-2), IL-3 and GH was examined.
Nb2-cells (5×10^4; PRL-dependent, rat T-lymphoma) were plated in each well of 96 well plates in a defined DMEM-serum free medium (0.1 mM 2-mercaptoethanol, 1% penicillin/streptomycin, and 1% ITS+ (Calbiochem)). Cells were rested for 24 hours at 37° C. in this defined medium in the absence of PRL before the addition of 5–500 pM PRL (either as human pituitary isolated PRL, National Hormone and Pituitary Program, NIDDK; recombinant human PRL from E. coli, Genzyme; or recombinant human PRL from Drosophila S2 cells) alone or premixed with 1–2000 fold excess of purified CypB. Parallel studies were performed using human pituitary-derived GH (National Hormone and Pituitary Program, NIDDK). Cultures were incubated for 48 hours at 37° C. and proliferation was evaluated by the addition of 0.5 μCi of ^3H-thymidine for four hours followed by harvesting and scintillography. […]

B1: Myc-tagged PRL: recombinant myc-tagged human PRL expressed and secreted by Drosophila S2 cells (protein)
chain: LPICPGGAARCQVTLRDLFDRAVVLSHYIHNLSSEMFSEFDKRYTHGRGFITKAINSCHTSSLATPEDKEQAQQMNQKDFLSLIVSILRSWNEPLYHLVTEVRGMQEAPEAILSKAVEIEEQTKRLLEGMELIVSQVHPETKENEIYPVWSGLPSLQMADEESRLSAYYNLLHCLRRDSHKIDNYLKLLKCRIIHNNNC
modifications: left off: small tags and cut ends
notes: recombinant myc-tagged human PRL expressed and secreted by Drosophila S2 cells
Protein expressed in Drosophila S2 cells
  bioactivity in Nb2 bioassays: functionally bioactive

B2: PRL: somatolactogenic hormone prolactin; human pituitary isolated or recombinant human PRL (protein)
chain: LPICPGGAARCQVTLRDLFDRAVVLSHYIHNLSSEMFSEFDKRYTHGRGFITKAINSCHTSSLATPEDKEQAQQMNQKDFLSLIVSILRSWNEPLYHLVTEVRGMQEAPEAILSKAVEIEEQTKRLLEGMELIVSQVHPETKENEIYPVWSGLPSLQMADEESRLSAYYNLLHCLRRDSHKIDNYLKLLKCRIIHNNNC
modifications: left off: small tags and cut ends
PRL alone, sigmoid shaped growth curves
  PRL concentration at which Nb2 growth curves plateau: approximately 2 ng PRL/ml
